Assay results: US20210388087A1 (Chugai, published 2021)
Residue numbers refer to the chain shown, from its start. In names and notes the source's numbering stands.

B1: CE115HA000 E61Q one-arm antibody (antibody, human IgG1, kappa, L234A L235A, N297A, name in Kabat numbering)
heavy: QVQLVESGGGVVQPGRSLRLSCAASGFTFSNAWMHWVRQAPGKGLEWVAQIKAKSNNYATYYAQSVKGRFTISRDDSKNSLYLQMNSLKTEDTAVYYCRYVHYGAYYGVDAWGQGTTVTVSSASTKGPSVFPLAPSSKSTSGGTAALGCLVKDYFPEPVTVSWNSGALTSGVHTFPAVLQSSGLYSLSSVVTVPSSSLGTQTYICNVNHKPSNTKVDKKVEPKSCDKTHTCPPCPAPEAAGGPSVFLFPPKPKDTLMISRTPEVTCVVVDVSHEDPEVKFNWYVDGVEVHNAKTKPREEQYASTYRVVSVLTVLHQDWLNGKEYKCKVSNKALPAPIEKTISKAKGQPREPQVYTLPPSRCELTKNQVSLSCAVKGFYPSDIAVEWESNGQPENNYKTTPPVLDSDGSFFLVSKLTVDKSRWQQGNVFSCSVMHEALHNHYTQKSLSLSPDYKDDDDK
chain: EPKSSDKTHTCPPCPAPELLGGPSVFLFPPKPKDTLMISRTPEVTCVVVDVSHEDPEVKFNWYVDGVEVHNAKTKPREEQYNSTYRVVSVLTVLHQDWLNGKEYKCKVSNKALPAPIEKTISKAKGQPREPQVCTLPPSRDELTKNQVSLWCLVKGFYPSDIAVEWESNGQPENNYKTTPPVLDSDGSFFLYSKLTVDKSRWQQGNVFSCSVMHEALHNRYTQKSLSLSP
light: DIVMTQSPLSLPVTPGEPASISCRSSQSLVHSNRNTYLHWYQQKPGQAPRLLIYKVSNRFSGVPDRFSGSGSGTDFTLKISRVEAEDVGVYYCGQGTQVPYTFGQGTKLEIKRTVAAPSVFIFPPSDEQLKSGTASVVCLLNNFYPREAKVQWKVDNALQSGNSQESVTEQDSKDSTYSLSSTLTLSKADYEKHKVYACEVTHQGLSSPVTKSFNRGEC
B2: CE115HA000 G98S one-arm antibody (antibody, human IgG1, kappa, L234A L235A, N297A, name in Kabat numbering)
heavy: B1 heavy with Q64E, G104S
chain: B1 chain
light: B1 light
B3: CE115HA000 G100bE one-arm antibody (antibody, human IgG1, kappa, L234A L235A, N297A, name in Kabat numbering)
heavy: B1 heavy with Q64E, G108E
chain: B1 chain
light: B1 light
B4: CE115HA000 G98T one-arm antibody (antibody, human IgG1, kappa, L234A L235A, N297A, name in Kabat numbering)
heavy: B1 heavy with Q64E, G104T
chain: B1 chain
light: B1 light
B5: CE115HA000 H35S one-arm antibody (antibody, human IgG1, kappa, L234A L235A, N297A, name in Kabat numbering)
heavy: B1 heavy with H35S, Q64E
chain: B1 chain
light: B1 light
B6: CE115HA000 H35G one-arm antibody (antibody, human IgG1, kappa, L234A L235A, N297A, name in Kabat numbering)
heavy: B1 heavy with H35G, Q64E
chain: B1 chain
light: B1 light
B7: CE115HA000 G98R one-arm antibody (antibody, human IgG1, kappa, L234A L235A, N297A, name in Kabat numbering)
heavy: B1 heavy with Q64E, G104R
chain: B1 chain
light: B1 light
B8: CE115HA000 H35M one-arm antibody (antibody, human IgG1, kappa, L234A L235A, N297A, name in Kabat numbering)
heavy: B1 heavy with H35M, Q64E
chain: B1 chain
light: B1 light
B9: CE115HA000 G98K one-arm antibody (antibody, human IgG1, kappa, L234A L235A, N297A, name in Kabat numbering)
heavy: B1 heavy with Q64E, G104K
chain: B1 chain
light: B1 light
B10: CE115HA000 H35E one-arm antibody (antibody, human IgG1, kappa, L234A L235A, N297A, name in Kabat numbering)
heavy: B1 heavy with H35E, Q64E
chain: B1 chain
light: B1 light
B11: CE115HA000 H35D one-arm antibody (antibody, human IgG1, kappa, L234A L235A, N297A, name in Kabat numbering)
heavy: B1 heavy with H35D, Q64E
chain: B1 chain
light: B1 light
B12: CE115HA000 G98A one-arm antibody (antibody, human IgG1, kappa, L234A L235A, N297A, name in Kabat numbering)
heavy: B1 heavy with Q64E, G104A
chain: B1 chain
light: B1 light
B13: CE115HA000 H35K one-arm antibody (antibody, human IgG1, kappa, L234A L235A, N297A, name in Kabat numbering)
heavy: B1 heavy with H35K, Q64E
chain: B1 chain
light: B1 light
B14: CE115HA000 H35I one-arm antibody (antibody, human IgG1, kappa, L234A L235A, N297A, name in Kabat numbering)
heavy: B1 heavy with H35I, Q64E
chain: B1 chain
light: B1 light
B15: CE115HA000 H35N one-arm antibody (antibody, human IgG1, kappa, L234A L235A, N297A, name in Kabat numbering)
heavy: B1 heavy with H35N, Q64E
chain: B1 chain
light: B1 light
B16: CE115HA000 G65D one-arm antibody (antibody, human IgG1, kappa, L234A L235A, N297A, name in Kabat numbering)
heavy: B1 heavy with Q64E, G68D
chain: B1 chain
light: B1 light
B17: CE115HA000 G98Y one-arm antibody (antibody, human IgG1, kappa, L234A L235A, N297A, name in Kabat numbering)
heavy: B1 heavy with Q64E, G104Y
chain: B1 chain
light: B1 light
B18: CE115HA000 G65E one-arm antibody (antibody, human IgG1, kappa, L234A L235A, N297A, name in Kabat numbering)
heavy: B1 heavy with Q64E, G68E
chain: B1 chain
light: B1 light
B19: CE115HA000 G98H one-arm antibody (antibody, human IgG1, kappa, L234A L235A, N297A, name in Kabat numbering)
heavy: B1 heavy with Q64E, G104H
chain: B1 chain
light: B1 light
B20: CE115HA000 G100bS one-arm antibody (antibody, human IgG1, kappa, L234A L235A, N297A, name in Kabat numbering)
heavy: B1 heavy with Q64E, G108S
chain: B1 chain
light: B1 light
B21: CE115HA000 H35F one-arm antibody (antibody, human IgG1, kappa, L234A L235A, N297A, name in Kabat numbering)
heavy: B1 heavy with H35F, Q64E
chain: B1 chain
light: B1 light
B22: CE115HA000 H35R one-arm antibody (antibody, human IgG1, kappa, L234A L235A, N297A, name in Kabat numbering)
heavy: B1 heavy with H35R, Q64E
chain: B1 chain
light: B1 light
B23: CE115HA000 H35L one-arm antibody (antibody, human IgG1, kappa, L234A L235A, N297A, name in Kabat numbering)
heavy: B1 heavy with H35L, Q64E
chain: B1 chain
light: B1 light
B24: CE115HA000 F29V one-arm antibody (antibody, human IgG1, kappa, L234A L235A, N297A, name in Kabat numbering)
heavy: B1 heavy with F29V, Q64E
chain: B1 chain
light: B1 light
B25: CE115HA000 G98Q one-arm antibody (antibody, human IgG1, kappa, L234A L235A, N297A, name in Kabat numbering)
heavy: B1 heavy with Q64E, G104Q
chain: B1 chain
light: B1 light
B26: CE115HA000 H35T one-arm antibody (antibody, human IgG1, kappa, L234A L235A, N297A, name in Kabat numbering)
heavy: B1 heavy with H35T, Q64E
chain: B1 chain
light: B1 light
B27: CE115HA000 H35Q one-arm antibody (antibody, human IgG1, kappa, L234A L235A, N297A, name in Kabat numbering)
heavy: B1 heavy with H35Q, Q64E
chain: B1 chain
light: B1 light
B28: CE115HA000 G98D one-arm antibody (antibody, human IgG1, kappa, L234A L235A, N297A, name in Kabat numbering)
heavy: B1 heavy with Q64E, G104D
chain: B1 chain
light: B1 light
B29: CE115HA000 G98P one-arm antibody (antibody, human IgG1, kappa, L234A L235A, N297A, name in Kabat numbering)
heavy: B1 heavy with Q64E, G104P
chain: B1 chain
light: B1 light
B30: CE115HA000 G100bF one-arm antibody (antibody, human IgG1, kappa, L234A L235A, N297A, name in Kabat numbering)
heavy: B1 heavy with Q64E, G108F
chain: B1 chain
light: B1 light
B31: CE115HA000 G100bY one-arm antibody (antibody, human IgG1, kappa, L234A L235A, N297A, name in Kabat numbering)
heavy: B1 heavy with Q64E, G108Y
chain: B1 chain
light: B1 light
B32: CE115HA000 G100bD one-arm antibody (antibody, human IgG1, kappa, L234A L235A, N297A, name in Kabat numbering)
heavy: B1 heavy with Q64E, G108D
chain: B1 chain
light: B1 light
B33: CE115HA000 G100bL one-arm antibody (antibody, human IgG1, kappa, L234A L235A, N297A, name in Kabat numbering)
heavy: B1 heavy with Q64E, G108L
chain: B1 chain
light: B1 light

Target: T1, CD3 epsilon homodimer protein (UniProt P07766 23-126)
T1 construct: immobilized on Sensor chip CM4 by amine coupling; also called CD3 (CD3 epsilon)
T1 sequence (P07766 23-126): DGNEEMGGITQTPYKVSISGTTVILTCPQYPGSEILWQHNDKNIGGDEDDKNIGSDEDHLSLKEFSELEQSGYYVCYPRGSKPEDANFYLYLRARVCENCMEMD
Test: SPR (Biacore T200), CD3 epsilon homodimer on CM4 chip, one-arm antibody as analyte, 25 C;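 further: homodimer attached to the sensor surface via amine coupling, HBS-EP+ used as running buffer during binding runs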
Procedure: An appropriate amount of CD3 epsilon homodimer protein was immobilized onto Sensor chip CM4 (GE Healthcare Japan Corp.) by the amine coupling method. Then, the antibody having an appropriate concentration was injected thereto as an analyte and allowed to interact with the CD3 epsilon homodimer protein on the sensor chip. Then, the sensor chip was regenerated by the injection of 10 mmol/L glycine-HCl (pH 1.5). The assay was conducted at 25 degrees C., and HBS-EP+(GE Healthcare Japan Corp.) was used as a running buffer. […] Each parameter was calculated using Biacore T200 Evaluation Software (GE Healthcare Japan Corp.).

Row | Binder | ratio of amounts bound (altered form / CE115HA000)
1 | B1 | 1.07
2 | B2 | 1.01
3 | B3 | 0.26
4 | B4 | 1.05
5 | B5 | 0.23
6 | B6 | 0.22
7 | B7 | 2.96
8 | B8 | 0.29
9 | B9 | 2.83
10 | B10 | 0.19
11 | B11 | 0.2
12 | B12 | 1.1
13 | B13 | 0.15
14 | B14 | 0.12
15 | B15 | 0.35
16 | B16 | 0.76
17 | B17 | 2.22

Row | Binder | ratio of amounts bound (altered form / CE115HA000)
18 | B18 | 0.78
19 | B19 | 1.58
20 | B20 | 0.52
21 | B21 | 0.21
22 | B22 | 0.14
23 | B23 | 0.11
24 | B24 | 0.36
25 | B25 | 1.22
26 | B26 | 0.26
27 | B27 | 0.13
28 | B28 | 0.26
29 | B29 | 1.02
30 | B30 | 0.3
31 | B31 | 0.23
32 | B32 | 0.27
33 | B33 | 0.27
